US20240409960A1, “METHOD FOR CONTROLLING PROTEIN FUNCTION” (The University of Tokyo, priority 2021, published 2024)

System: rox sites (Floxed (rox)-STOP Fluc reporter) in HEK293 cells
Test: luciferase assay of Dre-rox DNA recombination in HEK293 cells
Format: cell-based, human
Conditions: 5 ng plasmid, TMP 10 nM or 500 nM or DMSO, 24 or 48 hours
Method: For constructing the luciferase reporters detecting for the activities of Flp-FRT recombinase, VCre-Vlox recombinase and Dre-rox recombinase, the FRT site ([…]: SEQ ID No: 37), the Vlox site ([…]: SEQ ID No: 38), the rox site ([…]: SEQ ID No: 39), were inserted into HindIII and KpnI sites and ClaI and EcoRI sites in the pcDNA3.1 (+) vector of the luciferase reporter (of loxP-stop-loxP-Fluc).
For luciferase assay, HEK 293 cells were plated at 25,000 cells per well on a 96-well flat white microplate (Thermo Fisher Scientific), and were then cultured for 24 hours at 37° C. in 5% CO2. The cells were transfected with cDNAs encoding destabilized Cre along with the luciferase reporter (loxP-stop-loxP Fluc), using X-tremeGENE9 reagent (Merck Millipore) at 37° C. The total amount of DNA was 50 ng per well. Twenty-four hours after the transfection, TMP or DMSO was added into the cells, and the cells were further cultured for 24 hours or 48 hours. Just before the luciferase assay, the medium was replaced with Hanks' balanced salt solution (HBSS) (Thermo Fisher Scientific) containing 0.2 mM D-luciferin potassium salt. Bioluminescence measurement was performed for 1 second per well at room temperature using a Centro XS^3 LB 960 plate-reading luminometer (Berthold Technologies).

B1: SPEED-Dre: split Dre (a.a. 2-150 and 151-342), single DD on the N-terminal and C-terminal sides; SEQ ID No: 24 (protein)
chain: MVSKYPYDVPDYARSGGSGGMISLIAALAVDYVIGMENAMPWNLPADLAWFKRNTLNKPVIMGRHTWESIGRPLPGRKNIILSSQPSTDDRVTWVKSVDEAIAACGDVPEIMVIGGGRVIEQFLPKAQKLYLTHIDAEVEGDTHFPDYEPDDWESVFSEFHDADAQNSHSYCFEILERRGGSGGSGGKLVPKKKRKVGGSELIISGSSGGFLRNIGKEYQEAAENFMRFMNDQGAYAPNTLRDLRLVFHSWARWCHARQLAWFPISPEMAREYFLQLHDADLASTTIDKHYAMLNMLLSHCGLPPLSDDKSVSLAMRRIRREAATEKGERTGQAIPLRWDDLKLLDVLLGSGSGATNFSLLKQAGDVEENPGPLESRSERLVDLRNRAFLFVAYNTLMRMSEISRIRVGDLDQTGDTVTLHISHTKTITTAAGLDKVLSRRTTAVLNDWLDVSGLREHPDAVLFPPIHRSNKARITTTPLTAPAMEKIFSDAWVLLNKRDATPNKGRYRTWTGHSARVGAAIDMAEKQVSMVEIMQEGTWKKPETLMRYLRRGGVSVGANSRLMDSGGSGGSGGMISLIAALAVDYVIGMENAMPWNLPADLAWFKRNTLNKPVIMGRHTWESIGRPLPGRKNIILSSQPSTDDRVTWVKSVDEAIAACGDVPEIMVIGGGRVIEQFLPKAQKLYLTHIDAEVEGDTHFPDYEPDDWESVFSEFHDADAQNSHSYCFEILERR
modifications: MISC_FEATURE - HAtag; DOMAIN 21..179 Degradation Domain; SIGNAL 190..197 Nuclear Localization Signal; MISC_FEATURE - N-terminal side of Dre; MISC_FEATURE - P2A; MISC_FEATURE - C-terminal side of Dre; DOMAIN 575..733 Degradation Domain; Bacteriophage D6
background and TMP-dependent DNA recombination activity: results similar to those of SPEED-Cre
